Results as given in paper PMC9506717.

Conditions: glycan lost

Q: With Spike: N61/603/657 triple mutant as the substance, how does the “other: Spike incorporation into virions” value read?
A: The value was “decreases”.

Q: What does the source list for Spike: N61/603/657Q?
A: expression_or_secretion: no change; other: Spike incorporation into virions: decreases

Q: For Spike: N61/657Q, which expression_or_secretion is on record?
A: The expression_or_secretion was “no change”.

Q: And the “other: Spike incorporation into virions” value?
A: Its value is “decreases”.

Q: With Spike: N61Q as the substance, how does the expression_or_secretion read?
A: Its expression_or_secretion is “no change”.

Q: What about the “other: Spike incorporation into virions” value of the same substance?
A: The value was “decreases”.

Q: Which “other: Spike incorporation into virions” value does the source give for Spike: N61Q/N657Q here?
A: The value was “decreases”.

Q: With Spike: N603/657Q as the substance, how does the expression_or_secretion read?
A: Its expression_or_secretion is “no change”.

Q: For Spike: N603Q, which expression_or_secretion is on record?
A: The expression_or_secretion was “no change”.

Q: Which expression_or_secretion does the source give for Spike: N616Q here?
A: Its expression_or_secretion is “no change”.

Q: And the “other: viral entry” value?
A: The value was “decreases”.

Q: For Spike: N657Q, which expression_or_secretion is on record?
A: Its expression_or_secretion is “no change”.

Q: With Spike: N801Q as the substance, how does the expression_or_secretion read?
A: The expression_or_secretion was “no change”.

Q: And the “other: Spike incorporation into virions” value?
A: Its value is “decreases”.
